Measured values as given in the supplement of paper PMC9170038.

Tested on: MS2 coat protein
Assay: apparent KD of MS2 coat protein; designed switch direction (-1 OFF switch, 1 ON switch): 1; higher = weaker reporter binding
Outline: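 An oligonucleotide input, 200 uM small-molecule ligand, or no input was present during titration of SNAP-549-labelled MS2 coat protein, which was doubled from 0.7 or 1.5 nM to 3 µM. Designed RNA switches had been transcribed on Illumina chips by stalled E. coli RNA polymerase. Apparent KD per design is the median over clusters of curves fitted to normalised cluster fluorescence.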

[1] = Eterna round: R95, input ligand: FMN 200 uM
[2] = Eterna round: R95, input ligand: microRNA oligo, concentration not stated
[3] = Eterna round: R95, input ligand: none
[4] = input ligand: microRNA oligo, concentration not stated

| Sequence | apparent KD of MS2 coat protein [1] [nM] | apparent KD of MS2 coat protein [2] [nM] | apparent KD of MS2 coat protein [3] [nM] | apparent KD of MS2 coat protein (input ligand: FMN 200 uM) [nM] | apparent KD of MS2 coat protein [4] [nM] | apparent KD of MS2 coat protein (input ligand: none) [nM] |
| --- | --- | --- | --- | --- | --- | --- |
| UGGCAACAUGAGGAUCACCCAUGUCAAACUAAUCGAGGAUAUGGGAACUAACAACACAAACUAGAAGGCGAACUUG [Altered State 1-10 - Jieux - Same State 1] (puzzle: Same State 1) | 74.9 | 32 | 38.3 |  |  |  |
| UGGCUCAGACGAGGAUAUACGUGGUCACAUGAGGAUCACCCAUGUCUCGAGCUUCGGCUCGAGGCGUAGAAGGCGUCUGAGCCU [SSNG2/6-A3] (Eterna round: R96, puzzle: Same State NG 2) |  |  |  | 112 | 133 | 151 |
| UGGCUCAGACGAGGAUAUAUGCGAUCACAUGAGGAUCACCCAUGUCUCGAGCUUCGGCUCGAGGCAUAGAAGGCGUCUGAGCCA [SSNG2/4-A2] (Eterna round: R96, puzzle: Same State NG 2) |  |  |  | 15.8 | 28 | 32.5 |
| UGGCUCAGACGAGGAUAUAUGCGAUCACAUGAGGAUCACCCAUGUCUCGAGCUUCGGCUCGAGGCAUAGAAGGUGUCUGAGCCU [SSNG2/4-C3] (Eterna round: R96, puzzle: Same State NG 2) |  |  |  | 23.9 | 70.3 | 94.7 |
| UGGCUCAGACGAGGAUAUAUGUCUCGAGCUUCGGCUCGAGACAUGAGGAUCACCCAUGUAAUAACAUAGAAGGCGUCUGAGCCU [SSNG2/1-A3] (Eterna round: R96, puzzle: Same State NG 2) |  |  |  | 12.6 | 29 | 34.3 |
| UGGCUCAGACUAGGAUAUACGUGGUCACAUGAGGAUCACCCAUGUCUCGAGCUUCGGCUCGAGGCGUAGAAGGAGUCUGAGCCU [SSNG2/6-D3] (Eterna round: R96, puzzle: Same State NG 2) |  |  |  | 126 | 245 | 334 |
| UGGCUCAGACUAGGAUAUAUGUGGUCACAUGAGGAUCACCCAUGUCUCGAGCUUCGGCUCGAGGCAUAGAAGGAGUCUGAGCCA [SSNG2/5-D2] (Eterna round: R96, puzzle: Same State NG 2) |  |  |  | 1540 | 329 | 26.5 |
| UGGCUGAGUCGAGGAUAUGAUCUUCAUAUAAUAACAUGAGGAUCACCCAUGUAUAAUUACAUGGAUCAGAAGGCGACUCAGCCA [SSNG2/13-B2] (Eterna round: R96, puzzle: Same State NG 2) |  |  |  |  | 362 |  |
| UGGUAACAUGAGGAUCACCCAUGUCAAAUGAAUCGAGGAUAUGGGAAAGGAGAAGAGAAACUAGAAGGCGAAGUUG [Altered State 1-12 - Jieux - Same State 1] (puzzle: Same State 1) | 202 | 191 | 148 |  |  |  |
| UGGUACAUGGGAGGAUAUCAUGUAGAAACAUGAGGAUCACCCAUGUAGGUGGCACGAUUCGUGAAUGAGAAGGCCCAUGUACCU [JL SSNG1 3.61] (Eterna round: R96, puzzle: Same State NG 2) |  |  |  | 312 | 225 | 376 |
| UGGUACAUGGGAGGAUAUCCUCAGGAGACAUGAGGAUCACCCAUGUAUUAUAAGCCGAAAGGCAUGGAGAAGGCCCAUGUACCU [JL SSNG1 3.82] (Eterna round: R96, puzzle: Same State NG 2) |  |  |  | 14.1 | 112 | 123 |
| UGGUACAUGGGAGGAUAUCCUCAUGAGACAUGAGGAUCACCCAUGUAUUAUAAGCCGAAAGGCAUGGAGAAGGCCCAUGUACCU [JL SSNG1 3.83] (Eterna round: R96, puzzle: Same State NG 2) |  |  |  | 25 | 269 | 455 |
| UGGUACAUGGGAGGAUAUGGGCAUGAGACAUGAGGAUCACCCAUGUAUUAUAAGCCGAAAGGCAUCUAGAAGGCCCAUGUACCU [JL SSNG1 3.84] (Eterna round: R96, puzzle: Same State NG 2) |  |  |  | 14.2 | 68.3 | 92.4 |
| UGUACAUGAGGAUCACCCAUGUCUAGACAUGUUAAUAUAAUGUAGGAUAUAUAAAAUUUAAUUUAAUAGAAGGACAAUUUUUUU [JMF's solution 1] (Eterna round: R96, puzzle: Same State NG 3) |  |  |  | 278 | 218 | 297 |
| UGUCCAGCCUGAGCUGGACAAAAGCAUGUACAUGAGGAUCACCCAUGUUCAUGUACAAGCUUUUUGCUCGUCUUAAU [salish99_208a_r3_031] (puzzle: Sensor for hsa-mir-208a) | 497 | 14.1 | 445 |  |  |  |
| UGUCCAGCCUGAGCUGGACAAAAGCAUGUACAUGAGGAUCACCCAUGUUCAUGUACAAGCUUUUUGCUCGUCUUACG [salish99_208a_r3_082] (puzzle: Sensor for hsa-mir-208a) | 763 | 15 | 690 |  |  |  |

| Sequence | apparent KD of MS2 coat protein [1] [nM] | apparent KD of MS2 coat protein [2] [nM] | apparent KD of MS2 coat protein [3] [nM] | apparent KD of MS2 coat protein (input ligand: FMN 200 uM) [nM] | apparent KD of MS2 coat protein [4] [nM] | apparent KD of MS2 coat protein (input ligand: none) [nM] |
| --- | --- | --- | --- | --- | --- | --- |
| UGUCCAGCCUGAGCUGGACAAAAGCAUGUACAUGAGGAUCACCCAUGUUCAUGUACAAGCUUUUUGCUCGUCUUACU [salish99_208a_r3_081] (Eterna round: R96, puzzle: Sensor for hsa-mir-208a) |  |  |  | 534 | 12.9 | 400 |
| UGUCCAGCCUGAGCUGGACAAAAGCAUGUACAUGAGGAUCACCCAUGUUCAUGUACAAGCUUUUUGCUCGUCUUACU [salish99_208a_r3_081] (puzzle: Sensor for hsa-mir-208a) | 360 | 14.1 | 471 |  |  |  |
| UGUCCAGCCUGAGCUGGACAAAAGCAUGUACAUGAGGAUCACCCAUGUUCAUGUACAAGCUUUUUGCUCGUCUUAUG [salish99_208a_r3_052] (puzzle: Sensor for hsa-mir-208a) | 517 | 16.4 | 655 |  |  |  |
| UGUCCAGCCUGUGCUGGUCUUUUGCAUGUACAUGAGGAUCACCCAUGUCGUGUACAUGCUUUUUGCUCGUCUUUAAA [Photon Torp-04] (puzzle: Sensor for hsa-mir-208a) | 181 | 25.4 | 317 |  |  |  |
| UGUUAACAUGAGGAUCACCCAUGUCAAAUGAAGCGAGGAUAUGGAAAGUAAUAAGAUGAACUAGAAGGUGUAGUAG [Altered State 1-20 - Jieux - Same State 1] (puzzle: Same State 1) | 37.6 | 59.4 | 62 |  |  |  |
| UGUUAACAUGAGGAUCACCCAUGUCAAAUGAAUCGAGGAUAUGGGAAGUAAGAAGAGAAACUAGAAGGCGAAGUUG [Altered State 1-3 - Jieux - Same State 1] (puzzle: Same State 1) | 97.2 | 72.9 | 226 |  |  |  |
| UGUUAACAUGAGGAUCACCCAUGUCAAAUGAAUCGAGGAUAUGGGAAGUAAUAAGAUAAACCAGAAGGCGAAGUUG [Altered State 1-16 - Jieux - Same State 1] (puzzle: Same State 1) | 54.7 | 302 | 229 |  |  |  |
| UGUUAGUAGACAGGAUAUUGAAUGUUAAGUAUUAACAUGAGGAUCACCCAUGUAUUUGAUUGGUACAAGAAGGGUCAUGUUUGU [JR_SSNG2_Sub014] (Eterna round: R96, puzzle: Same State NG 2) |  |  |  |  | 290 |  |
| UGUUGUAUUACAGGAUAUCUAGGAUUUUUAUUUAGAGAAGGGUAUUCACAUGAGGAUCACCCAUGUAUAUACGAGGAAGUUGUG [JMF's solution 31] (Eterna round: R96, puzzle: Same State NG 1) |  |  |  |  | 30.6 |  |
| UGUUGUAUUACAGGAUAUCUAGUAUUUUUACUUAGAGAAGGGUAUUCACAUGAGGAUCACCCAUGUAUAUACGAGGAAGUUGUG [JMF's solution 50] (Eterna round: R96, puzzle: Same State NG 1) |  |  |  |  | 22.9 |  |
| UGUUGUAUUACAGGAUAUCUAGUAUUUUUAGUUAGAGAAGGGUAUUCACAUGAGGAUCACCCAUGUAUAUACGAGGAAGUUGUG [JMF's solution 49] (Eterna round: R96, puzzle: Same State NG 1) |  |  |  | 43.7 | 36.9 | 45.7 |
| UGUUGUAUUACAGGAUAUCUAGUAUUUUUAUGUAGAGAAGGGUAUUCACAUGAGGAUCACCCAUGUAUAUACGAGGAAGUUGUG [JMF's solution 52] (Eterna round: R96, puzzle: Same State NG 1) |  |  |  |  | 28.9 |  |
| UGUUGUAUUACAGGAUAUCUAUGAUUUGUAUUUAGAGAAGGGUAUUCACAUGAGGAUCACCCAUGUAUAUACGAGGAAGUUGUG [JMF's solution 62] (Eterna round: R96, puzzle: Same State NG 1) |  |  |  | 67.5 | 48.5 | 62.3 |
| UGUUGUAUUACAGGAUAUCUAUUAGUUUAAUUUAGAGAAGGGUAUUCACAUGAGGAUCACCCAUGUAUAUACGAGGAAGUUGUG [JMF's solution 93] (Eterna round: R96, puzzle: Same State NG 1) |  |  |  |  | 39.5 |  |
| UGUUGUAUUACAGGAUAUCUAUUAGUUUUAGUUAGAGAAGGGUAUUCACAUGAGGAUCACCCAUGUAUAUACGAGGAAGUUGUG [JMF's solution 99] (Eterna round: R96, puzzle: Same State NG 1) |  |  |  |  | 34.6 |  |
| UGUUGUAUUACAGGAUAUCUAUUAGUUUUAUAUAGAGAAGGGUAUUCACAUGAGGAUCACCCAUGUAUAUACGAGGAAGUUGUG [JMF's solution 100] (Eterna round: R96, puzzle: Same State NG 1) |  |  |  |  | 36.8 |  |
